This note sets out measurements from US20230346969A1, “INTERMEDIATE FOR PREPARING ANTIBODY-DRUG CONJUGATE (ADC), PREPARATION METHOD THEREFOR, AND USE THEREOF” (priority 2020, published 2023).

The nature of series [1]: Preparation of control ADC via hydrophobic VC linker (behaviour in solution). It counts as physicochemical. Particulars: hydrophobic VC linker with PTX payload. The procedure: A Troptargeted hRS7-VC-PTX molecule was prepared via a hydrophobic VC linker (FIG. 1a).
Series [2] deals with Human trophoblast cell surface antigen 2 (Trop-2), on tumor cell lines (human) (UniProt P09758). In words: flow cytometry background, taken as human IgG1 isotype control; cell line printed 'NCl-H1828' (probably NCI-H1688, called Trop-2-negative in paragraph 230). For orientation: In flow cytometry, cells or beads pass a laser one at a time.
Series [3] has the same target. In words: flow cytometry background, taken as human IgG1 isotype control; cell line printed 'COXC28' (probably COLO205).
Series [4] has the same target. Briefly: flow cytometry background, taken as human IgG1 isotype control; cell line printed 'HOC2401' (probably NCIH2452).
Series [5] shares this target. Briefly: flow cytometry background, taken as human IgG1 isotype control; cell line printed 'CCAO205' (probably COLO205).
Series [6] has the same target. In words: flow cytometry background, taken as human IgG1 isotype control; cell line printed '3128' (probably HT29).
Series [7] shares this target. In words: flow cytometry background, taken as human IgG1 isotype control; cell line printed 'RMCA' (pancreas; probably BXPC-3).
Series [8] has the same target. Briefly: flow cytometry background, taken as human IgG1 isotype control; cell line printed 'SKERS' (probably SKBR3).
Series [9] has the same target. Briefly: flow cytometry background, taken as human IgG1 isotype control; cell line printed 'HCCHOI' (probably HCC1806).
Series [10] has the same target. Briefly: flow cytometry background, taken as human IgG1 isotype control; cell line printed 'SRM-C-21H' (probably SCLC-21H).
For series [11] the target is unchanged. In words: flow cytometry background, taken as human IgG1 isotype control; cell line printed 'HOC1906' (probably HCC1806).
The target is the same in series [12]. In words: flow cytometry background, taken as human IgG1 isotype control; cell line printed 'SRM-M9-409' (probably MDA-MB-468).
Series [13] has the same target. In words: flow cytometry background, taken as human IgG1 isotype control; cell line printed 'H123' (probably HT29).
The target is the same in series [14]. In words: flow cytometry background, taken as human IgG1 isotype control; cell line printed 'Cxoo-1' (probably Capan-1).
The target is the same in series [15]. Briefly: flow cytometry background, taken as human IgG1 isotype control; cell line printed 'SK-M55-1' (probably SK-MES-1).
The target is the same in series [16]. Briefly: flow cytometry background, taken as human IgG1 isotype control; cell line printed 'SRM-K9-231' (probably MDA-MB-231).
For series [17] the target is unchanged. In words: flow cytometry background, taken as human IgG1 isotype control; cell line printed 'ECLC 214' (probably SCLC-21H).
Series [18] has the same target. Briefly: flow cytometry background, taken as human IgG1 isotype control; cell line printed 'MCP-83-21' (probably MDA-MB-231).
The target is the same in series [19]. Briefly: flow cytometry background, taken as human IgG1 isotype control; cell line printed 'HCl-11685' (probably NCI-H1688, called Trop-2-negative in paragraph 230).
For series [20] the target is unchanged. Briefly: flow cytometry background, taken as human IgG1 isotype control; cell line printed 'SK8RS' (probably SKBR3).
The target is the same in series [21]. In words: flow cytometry background, taken as human IgG1 isotype control; cell line CFPAC-1.
The target is the same in series [22]. In words: flow cytometry background, taken as human IgG1 isotype control; cell line printed 'BKFC-Y' (probably BXPC-3).
For series [23] the target is unchanged. Briefly: flow cytometry background, taken as human IgG1 isotype control; cell line printed 'MOA-413-468' (probably MDA-MB-468).
Series [24] shares this target. Briefly: flow cytometry background, taken as human IgG1 isotype control; cell line printed 'Cepes-3' (probably Capan-1).
Series [25] shares this target. Briefly: flow cytometry background, taken as human IgG1 isotype control; cell line printed 'CPAC-1' (probably CFPAC-1).
Series [26] has the same target. In words: flow cytometry background, taken as human IgG1 isotype control; cell line printed 'SK-WSS-7' (probably SK-MES-1).

UniProt P09758, sequence (P09758 27-323): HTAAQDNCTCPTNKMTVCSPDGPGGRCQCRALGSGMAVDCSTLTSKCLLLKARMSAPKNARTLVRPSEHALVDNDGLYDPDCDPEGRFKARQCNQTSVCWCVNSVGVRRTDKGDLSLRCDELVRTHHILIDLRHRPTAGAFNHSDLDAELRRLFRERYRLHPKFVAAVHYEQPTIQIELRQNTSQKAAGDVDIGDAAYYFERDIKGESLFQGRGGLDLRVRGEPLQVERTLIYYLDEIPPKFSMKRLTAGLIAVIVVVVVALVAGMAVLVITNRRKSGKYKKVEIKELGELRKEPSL

hRS7-VC-PTX: the “behaviour in solution during the preparation process” value in series [1] was “completely precipitated out of solution”.
For the substance human IgG1 isotype control (antibody), the MFI (background) in [2] was found to be 480 MFI; in series [3] it was 811 MFI; in series [4] it was 1580 MFI; in series [5] it was 1530 MFI; in series [6], 866 MFI; in series [7], 1080 MFI. The MFI (background) in series [8] was 1850 MFI; in [9], 692 MFI; in series [10], 1220 MFI; in series [11], 192 MFI; in [12], 378 MFI; in [13], 894 MFI. In addition, the MFI (background) in series [14] came to 3650 MFI; in series [15], 801 MFI; in [16], 1250 MFI; in series [17], 1230 MFI; in series [18] it was 1250 MFI; in series [19] it was 868 MFI. Besides, the MFI (background) in series [20] was 1830 MFI; in series [21], 1580 MFI; in series [22], 1670 MFI; in series [23], 678 MFI; in series [24], 3580 MFI; in series [25], 1580 MFI. In [26], this substance yielded an MFI (background) of 691 MFI.
